Results from US20190218553, “VON WILLEBRAND FACTOR (VWF)-TARGETING AGENTS AND METHODS OF USING THE SAME” (DUKE UNIVERSITY, published 2019).

Legend:
Settings in all cases: tags: factor VIII free, Haematologic Technologies Inc; label: 5'-32P
[1] = target: T1, von Willebrand factor (VWF) (Homo sapiens, UniProt P04275 P04275:764-2813); assay: filter; NB; loop CAGA mutated; 2 mM CaCl2, 37 C
Protocol: (§1) Affinity constants (Kd values) were determined using double-filter nitrocellulose filter binding assays (Rusconi et al, Thromb. Haemost. $4:841-848 (2000)). All binding studies were performed in binding buffer F (20 mM HEPES, pH 7.4, 150 mM NaCl, 2 mM CaCl₂, and 0.01% BSA) at 37° C. Human purified VWF (factor VIII free) was purchased from Haematologic Technologies Inc. (Essex Junction, Vt.) and used in the double-filter nitrocellulose filter binding assay to determine the Kd of the aptamers. Briefly, RNA were end-labeled at the 5′ end with T4 polynucleotide kinase (New England Biolabs, Beverly, Mass.) and [γ³²P] ATP (Amersham Pharmacia Biotech, Piscataway, N.J.) (Fitzwater and Polisky, Methods Enzymol. 267:275-301 (1996)). End-labeled RNA was diluted in binding buffer F, heat denatured at 65° C. for 5 minutes, and subsequently equilibrated at 37° C. Direct binding was performed by incubating trace ³²P-RNA with varying concentrations of VWF protein in binding buffer F at 37° C. for 5 min. The fraction of the nucleic acid-protein complex which bound to the nitrocellulose membrane was quantified with a phosphorimager (Molecular Dynamics, Sunnyvale, Calif.). Non-specific binding of the radiolabeled nucleic acid was subtracted out of the binding such that only specific binding remained (Wong and Lohman, Proc. Natl. Acad. Sci. USA 90:5428-5432 (1993)).

[2] = target: T1, von Willebrand factor (VWF); assay: filter; Bmax 58%; 2 mM CaCl2, 37 C
Protocol: as §1

[3] = target: T1, von Willebrand factor (VWF); assay: filter; Bmax 54%; 2 mM CaCl2, 37 C
Protocol: as §1

[4] = target: T1, von Willebrand factor (VWF); assay: filter; Bmax 78%; 2 mM CaCl2, 37 C
Protocol: as §1

[5] = target: T1, von Willebrand factor (VWF); assay: filter; Bmax 82%; 2 mM CaCl2, 37 C
Protocol: as §1

[6] = target: T1, von Willebrand factor (VWF); assay: filter; Bmax 81%; 2 mM CaCl2, 37 C
Protocol: as §1

[7] = target: T1, von Willebrand factor (VWF); assay: filter; Bmax 88%; 2 mM CaCl2, 37 C
Protocol: as §1

[8] = target: T1, von Willebrand factor (VWF); assay: filter; Bmax 86%; 2 mM CaCl2, 37 C
Protocol: as §1

[9] = target: T1, von Willebrand factor (VWF); assay: filter; Bmax 87%; 2 mM CaCl2, 37 C
Protocol: as §1

[10] = target: T1, von Willebrand factor (VWF); assay: filter; Bmax 67%; 2 mM CaCl2, 37 C
Protocol: as §1

## ACGAACUGCCCUCUUUCAUGACGCACCCCCGU (ssRNA, 2'-F C and U; 2'-OH A and G; 3' idT) [T98]
[1]
  binding result: no binding

## ACGAACUGCCCUCUAUUAUUUGACGCACCCCCGU (ssRNA, 2'-F C and U; 2'-OH A and G; 3' idT) [T99]
[1]
  binding result: no binding

## ACGAACUGCCCUCUUUUUUGACGCACCCCCGU (ssRNA, 2'-F C and U; 2'-OH A and G; 3' idT) [T101]
[1]
  binding result: no binding

## ACGAACUGCCCUCAGCUAUUUCAUUUGCUGACGCACAGACGU (ssRNA, 2'-F C and U; 2'-OH A and G; 3' idT) [T36]
[2]
  Kd: 11 nM

## ACGAACUGCCCUCAGCAUUUCAUUGCUGACGCACAGACGU (ssRNA, 2'-F C and U; 2'-OH A and G; 3' idT) [T40]
[3]
  Kd: 11 nM

B1: T11 (ssRNA)
RNA: GGGAGGACGAACUGCCCUCAGCUACUUUCAUGUUGCUGACGCACAGACGACUCGCUG
modifications: 2'-F C and U; 2'-OH A and G
[3]
  Kd: 16.5 nM

## ACGAACUGCCCUCAGCAUUAUUGCUGACGCACAGACGU (ssRNA, 2'-F C and U; 2'-OH A and G; 3' idT) [T52]
[2]
  Kd: 16 nM

## ACGAACUGCCCUCGAUCGACGCACAGACGU (ssRNA, 2'-F C and U; 2'-OH A and G; 3' idT) [T59]
[4]
  Kd: 8.8 nM

## ACGAACUGCCCUCUUAUGACGCACAGACGU (ssRNA, 2'-F C and U; 2'-OH A and G; 3' idT) [T68]
[5]
  Kd: 16 nM

## ACGAACUGCCCUCAUUAUUGACGCACAGACGU (ssRNA, 2'-F C and U; 2'-OH A and G; 3' idT) [T70]
[6]
  Kd: 13 nM

## ACGAACUGCCCUCGUUUCAUCGACGCACAGACGU (ssRNA, 2'-F C and U; 2'-OH A and G; 3' idT) [T86]
[7]
  Kd: 16 nM

## ACGAACUGCCCUCUUUCAUGACGCACAGACGU (ssRNA, 2'-F C and U; 2'-OH A and G; 3' idT) [T87]
[8]
  Kd: 11 nM

## ACGAACUGCCCUCUUUUUUGACGCACAGACGU (ssRNA, 2'-F C and U; 2'-OH A and G; 3' idT) [T94]
[9]
  Kd: 5 nM

## ACGAACUGCCCUCUUUUUUUUGACGCACAGACGU (ssRNA, 2'-F C and U; 2'-OH A and G; 3' idT) [T95]
[6]
  Kd: 12 nM

B2: T25 vrt5 (ssRNA)
RNA: ACGAACUGCCCUCAGCUACUUUCAUGUUGCUGACGCACAGACGU
modifications: rAfCrGmAmAfCfUrGfCfCfCfUfCrArGfCfUrAfCfUfUfUfCrAfUrGfUfUrGfCfUrGrAfCrGfCrAfCmAmGmAfCrGfU-idT
[2]
  Kd: 7.1 nM

B3: T25 vrt6 (ssRNA)
RNA: ACGAACUGCCCUCAGCUACUUUCAUGUUGCUGACGCACAGACGU
modifications: rAfCrGmAmAmCfUrGfCfCfCfUfCrArGfCfUrAfCfUfUfUfCrAfUrGfUfUrGfCfUrGrAfCrGfCrAmCmAmGmAfCrGfU-idT
[10]
  Kd: 3.1 nM

B4: T25 vrt14 (ssRNA)
RNA: ACGAACUGCCCUCAGCUACUUUCAUGUUGCUGACGCACAGACGU
modifications: mAfCrGrArAfCfUrGfCfCfCfUfCrArGfCfUrAfCfUfUfUfCrAfUrGfUfUrGfCfUrGrAfCrGfCrAfCrArGrAfCrGmU-idT
[3]
  Kd: 9.2 nM

B5: T25 vrt16 (ssRNA)
RNA: ACGAACUGCCCUCAGCUACUUUCAUGUUGCUGACGCACAGACGU
modifications: rAfCmGrArAfCfUrGfCfCfCfUfCrArGfCfUrAfCfUfUfUfCrAfUrGfUfUrGfCfUrGrAfCrGfCrAfCrArGrAmCrGfU-idT
[4]
  Kd: 4.3 nM

## ACGAACUGCCCUCGAUCGACGCACAGACGU (ssRNA, rAfCrGmAmAmCfUrGfCfCfCmUmCmGmAmUmCmGmAfCrGfCrAmCmAmGmAfCrGfU-idT) [T59 vrt2]
[9]
  Kd: 5.5 nM

## ACGAACUGCCCUCGAUCGACGCACAGACGU (ssRNA, mAmCmGmAmAmCfUrGfCfCfCfUmCmGmAmUmCmGrAfCrGfCrAmCmAmGmAmCmGfU-idT) [T59 vrt6]
[5]
  Kd: 0.5 nM

## ACGAACUGCCCUCGAUCGACGCACAGACGU (ssRNA, mAfCrGmAmAmCfUrGfCfCfCfUmCmGmAmUmCmGrAfCrGfCrAmCmAmGmAfCrGfU-idT) [T59 vrt8]
[8]
  Kd: 1.8 nM

## ACGAACUGCCCUCAGCUACUUUCAUGUUGCUGACGCACAGACGU (ssRNA, 2'-F C and U; 2'-OH A and G; 3' idT) [T25]
[3]
  Kd: 13.4 nM

## ACGAACUGCCCUCGAUCGACGCACAGACGU (ssRNA, rAmCrGmAmAmCfUrGfCfCfCfUmCmGmAmUmCmGrAfCrGfCrAmCmAmGmAfCmGfU-idT) [T59 vrt9]
[8]
  Kd: 1 nM
